The values that follow come from patent US20130323248A1.

The target in assay [1] is Recombinant Human DLL4 (human) (UniProt Q9NR61). Kind of assay: Biacore SPR. On the technique in general: SPR reads the build-up and loss of mass on a sensor chip optically.
The target in assay [2] is human DLL-4 expressed on the surface of CHO-K1 cells (CHO-DLL-4 cells) (human) (UniProt Q9NR61). Kind of assay: flow cytometry competition; 20 ug/ml FITC-rhNotch-1 on CHO-DLL-4 cells, increasing antibody concentrations. Background: In flow cytometry, cells or beads pass a laser one at a time.
For assay [3] the target is unchanged. Nature of the assay: flow cytometry (HTFC) on CHO-K1 cells stably expressing DLL-4.

A word on the Kd: it is a measure of binding affinity in units of concentration. The IC50 is the concentration at which inhibition is half-maximal. A higher IC50 goes with lower potency. A word on the EC50: it is the concentration at which the effect is half-maximal. A higher EC50 goes with lower potency in that assay.

For 21M18, in assay [1], the Ka worked out at 5.86e+08 M⁻¹ and the Kd is 1.71 nM.

As to anti-DLL-4 antibody OMP21M18 (Oncomed), the IC50 in assay [2] is 1.72 nM. In assay [3], this substance yielded an EC50 of 1.7 nM.
